Results: patent US20240117334A1, “FACTOR B PROTEASES” (Vertex Pharmaceuticals Incorporated, priority 2021, published 2024)

B1: chymase C22S/P38Q/H100P/L116R/F123L/Q180H/A226R/R235S (enzyme)
chain: IIGGTESKPHSRPYMAYLEIVTSNGQSKFCGGFLIRRNFVLTAAHCAGRSITVTLGAHNITEEEDTWQKLEVIKQFRHPKYNTSTLPHDIMLLKLKEKASLTRAVGTLPLPSQFNFVPPGRMCRVAGWGRTGVLKPGSDTLQEVKLRLMDPQACSHFRDFDHNLHLCVGNPRKTKSAFKGDSGGPLLCAGVAQGIVSYGRSDAKPPRVFTRISHYSPWINQILQAN
B2: chymase C22S/M135T/P150S/S152G/Q166H/D175N/A190T/A226R (enzyme)
chain: IIGGTESKPHSRPYMAYLEIVTSNGPSKFCGGFLIRRNFVLTAAHCAGRSITVTLGAHNITEEEDTWQKLEVIKQFRHPKYNTSTLHHDIMLLKLKEKASLTLAVGTLPFPSQFNFVPPGRTCRVAGWGRTGVLKSGGDTLQEVKLRLMDPHACSHFRNFDHNLQLCVGNPRKTKSTFKGDSGGPLLCAGVAQGIVSYGRSDAKPPRVFTRISHYRPWINQILQAN
B3: chymase C22S/F41R/L99H/G151T/F173L/Y215K/A226R (enzyme)
chain: IIGGTESKPHSRPYMAYLEIVTSNGPSKRCGGFLIRRNFVLTAAHCAGRSITVTLGAHNITEEEDTWQKLEVIKQFRHPKYNTSTHHHDIMLLKLKEKASLTLAVGTLPFPSQFNFVPPGRMCRVAGWGRTGVLKPTSDTLQEVKLRLMDPQACSHLRDFDHNLQLCVGNPRKTKSAFKGDSGGPLLCAGVAQGIVSKGRSDAKPPRVFTRISHYRPWINQILQAN
B4: chymase C22S/L99R/K192R/S218L/A226R (enzyme)
chain: IIGGTESKPHSRPYMAYLEIVTSNGPSKFCGGFLIRRNFVLTAAHCAGRSITVTLGAHNITEEEDTWQKLEVIKQFRHPKYNTSTRHHDIMLLKLKEKASLTLAVGTLPFPSQFNFVPPGRMCRVAGWGRTGVLKPGSDTLQEVKLRLMDPQACSHFRDFDHNLQLCVGNPRKTKSAFRGDSGGPLLCAGVAQGIVSYGRLDAKPPRVFTRISHYRPWINQILQAN
B5: chymase C22S/F41L/L99H/F173L/Y215K/A226R (enzyme)
chain: IIGGTESKPHSRPYMAYLEIVTSNGPSKLCGGFLIRRNFVLTAAHCAGRSITVTLGAHNITEEEDTWQKLEVIKQFRHPKYNTSTHHHDIMLLKLKEKASLTLAVGTLPFPSQFNFVPPGRMCRVAGWGRTGVLKPGSDTLQEVKLRLMDPQACSHLRDFDHNLQLCVGNPRKTKSAFKGDSGGPLLCAGVAQGIVSKGRSDAKPPRVFTRISHYRPWINQILQAN
B6: chymase C22S/F41V/L99H/F173L/Y215K/A226R (enzyme)
chain: IIGGTESKPHSRPYMAYLEIVTSNGPSKVCGGFLIRRNFVLTAAHCAGRSITVTLGAHNITEEEDTWQKLEVIKQFRHPKYNTSTHHHDIMLLKLKEKASLTLAVGTLPFPSQFNFVPPGRMCRVAGWGRTGVLKPGSDTLQEVKLRLMDPQACSHLRDFDHNLQLCVGNPRKTKSAFKGDSGGPLLCAGVAQGIVSKGRSDAKPPRVFTRISHYRPWINQILQAN
B7: chymase C22S/F41L/L99H/G151T/F173L/Y215K/A226R (enzyme)
chain: IIGGTESKPHSRPYMAYLEIVTSNGPSKLCGGFLIRRNFVLTAAHCAGRSITVTLGAHNITEEEDTWQKLEVIKQFRHPKYNTSTHHHDIMLLKLKEKASLTLAVGTLPFPSQFNFVPPGRMCRVAGWGRTGVLKPTSDTLQEVKLRLMDPQACSHLRDFDHNLQLCVGNPRKTKSAFKGDSGGPLLCAGVAQGIVSKGRSDAKPPRVFTRISHYRPWINQILQAN
B8: chymase C22S/L99R/F173Y/S218L/A226R (enzyme)
chain: IIGGTESKPHSRPYMAYLEIVTSNGPSKFCGGFLIRRNFVLTAAHCAGRSITVTLGAHNITEEEDTWQKLEVIKQFRHPKYNTSTRHHDIMLLKLKEKASLTLAVGTLPFPSQFNFVPPGRMCRVAGWGRTGVLKPGSDTLQEVKLRLMDPQACSHYRDFDHNLQLCVGNPRKTKSAFKGDSGGPLLCAGVAQGIVSYGRLDAKPPRVFTRISHYRPWINQILQAN
B9: chymase C22S/F41V/L99H/G151T/F173L/Y215K/A226R (enzyme)
chain: IIGGTESKPHSRPYMAYLEIVTSNGPSKVCGGFLIRRNFVLTAAHCAGRSITVTLGAHNITEEEDTWQKLEVIKQFRHPKYNTSTHHHDIMLLKLKEKASLTLAVGTLPFPSQFNFVPPGRMCRVAGWGRTGVLKPTSDTLQEVKLRLMDPQACSHLRDFDHNLQLCVGNPRKTKSAFKGDSGGPLLCAGVAQGIVSKGRSDAKPPRVFTRISHYRPWINQILQAN
B10: chymase C22S/F41R/L99H/F173L/Y215K/A226R (enzyme)
chain: IIGGTESKPHSRPYMAYLEIVTSNGPSKRCGGFLIRRNFVLTAAHCAGRSITVTLGAHNITEEEDTWQKLEVIKQFRHPKYNTSTHHHDIMLLKLKEKASLTLAVGTLPFPSQFNFVPPGRMCRVAGWGRTGVLKPGSDTLQEVKLRLMDPQACSHLRDFDHNLQLCVGNPRKTKSAFKGDSGGPLLCAGVAQGIVSKGRSDAKPPRVFTRISHYRPWINQILQAN
B11: chymase C22S/V138I/L160V/S189T/A226R (enzyme)
chain: IIGGTESKPHSRPYMAYLEIVTSNGPSKFCGGFLIRRNFVLTAAHCAGRSITVTLGAHNITEEEDTWQKLEVIKQFRHPKYNTSTLHHDIMLLKLKEKASLTLAVGTLPFPSQFNFVPPGRMCRIAGWGRTGVLKPGSDTLQEVKVRLMDPQACSHFRDFDHNLQLCVGNPRKTKTAFKGDSGGPLLCAGVAQGIVSYGRSDAKPPRVFTRISHYRPWINQILQAN
B12: chymase C22S/F41V/L99H/G151T/F173Y/Y215K/A226R (enzyme)
chain: IIGGTESKPHSRPYMAYLEIVTSNGPSKVCGGFLIRRNFVLTAAHCAGRSITVTLGAHNITEEEDTWQKLEVIKQFRHPKYNTSTHHHDIMLLKLKEKASLTLAVGTLPFPSQFNFVPPGRMCRVAGWGRTGVLKPTSDTLQEVKLRLMDPQACSHYRDFDHNLQLCVGNPRKTKSAFKGDSGGPLLCAGVAQGIVSKGRSDAKPPRVFTRISHYRPWINQILQAN
B13: chymase C22S/V138L/A226R (enzyme)
chain: IIGGTESKPHSRPYMAYLEIVTSNGPSKFCGGFLIRRNFVLTAAHCAGRSITVTLGAHNITEEEDTWQKLEVIKQFRHPKYNTSTLHHDIMLLKLKEKASLTLAVGTLPFPSQFNFVPPGRMCRLAGWGRTGVLKPGSDTLQEVKLRLMDPQACSHFRDFDHNLQLCVGNPRKTKSAFKGDSGGPLLCAGVAQGIVSYGRSDAKPPRVFTRISHYRPWINQILQAN
B14: chymase C22S/L160V/S189T/A226R (enzyme)
chain: IIGGTESKPHSRPYMAYLEIVTSNGPSKFCGGFLIRRNFVLTAAHCAGRSITVTLGAHNITEEEDTWQKLEVIKQFRHPKYNTSTLHHDIMLLKLKEKASLTLAVGTLPFPSQFNFVPPGRMCRVAGWGRTGVLKPGSDTLQEVKVRLMDPQACSHFRDFDHNLQLCVGNPRKTKTAFKGDSGGPLLCAGVAQGIVSYGRSDAKPPRVFTRISHYRPWINQILQAN
B15: chymase C22S/F41L/L99H/F173Y/Y215K/A226R (enzyme)
chain: IIGGTESKPHSRPYMAYLEIVTSNGPSKLCGGFLIRRNFVLTAAHCAGRSITVTLGAHNITEEEDTWQKLEVIKQFRHPKYNTSTHHHDIMLLKLKEKASLTLAVGTLPFPSQFNFVPPGRMCRVAGWGRTGVLKPGSDTLQEVKLRLMDPQACSHYRDFDHNLQLCVGNPRKTKSAFKGDSGGPLLCAGVAQGIVSKGRSDAKPPRVFTRISHYRPWINQILQAN
B16: chymase C22S/K111E/F173L/Y215H/A226R (enzyme)
chain: IIGGTESKPHSRPYMAYLEIVTSNGPSKFCGGFLIRRNFVLTAAHCAGRSITVTLGAHNITEEEDTWQKLEVIKQFRHPKYNTSTLHHDIMLLKLKEEASLTLAVGTLPFPSQFNFVPPGRMCRVAGWGRTGVLKPGSDTLQEVKLRLMDPQACSHLRDFDHNLQLCVGNPRKTKSAFKGDSGGPLLCAGVAQGIVSHGRSDAKPPRVFTRISHYRPWINQILQAN
B17: chymase E21G/C22S/R61H/M135T/F173Y/D175N/A209V/A226R (enzyme)
chain: IIGGTGSKPHSRPYMAYLEIVTSNGPSKFCGGFLIRRNFVLTAAHCAGHSITVTLGAHNITEEEDTWQKLEVIKQFRHPKYNTSTLHHDIMLLKLKEKASLTLAVGTLPFPSQFNFVPPGRTCRVAGWGRTGVLKPGSDTLQEVKLRLMDPQACSHYRNFDHNLQLCVGNPRKTKSAFKGDSGGPLLCAGVVQGIVSYGRSDAKPPRVFTRISHYRPWINQILQAN
B18: chymase C22S/L99R/F173Y/K192R/A226R (enzyme)
chain: IIGGTESKPHSRPYMAYLEIVTSNGPSKFCGGFLIRRNFVLTAAHCAGRSITVTLGAHNITEEEDTWQKLEVIKQFRHPKYNTSTRHHDIMLLKLKEKASLTLAVGTLPFPSQFNFVPPGRMCRVAGWGRTGVLKPGSDTLQEVKLRLMDPQACSHYRDFDHNLQLCVGNPRKTKSAFRGDSGGPLLCAGVAQGIVSYGRSDAKPPRVFTRISHYRPWINQILQAN
B19: chymase C22S/F173L/Y215H/A226R (enzyme)
chain: IIGGTESKPHSRPYMAYLEIVTSNGPSKFCGGFLIRRNFVLTAAHCAGRSITVTLGAHNITEEEDTWQKLEVIKQFRHPKYNTSTLHHDIMLLKLKEKASLTLAVGTLPFPSQFNFVPPGRMCRVAGWGRTGVLKPGSDTLQEVKLRLMDPQACSHLRDFDHNLQLCVGNPRKTKSAFKGDSGGPLLCAGVAQGIVSHGRSDAKPPRVFTRISHYRPWINQILQAN
B20: chymase C22S/F41G/L99H/F173L/Y215K/A226R (enzyme)
chain: IIGGTESKPHSRPYMAYLEIVTSNGPSKGCGGFLIRRNFVLTAAHCAGRSITVTLGAHNITEEEDTWQKLEVIKQFRHPKYNTSTHHHDIMLLKLKEKASLTLAVGTLPFPSQFNFVPPGRMCRVAGWGRTGVLKPGSDTLQEVKLRLMDPQACSHLRDFDHNLQLCVGNPRKTKSAFKGDSGGPLLCAGVAQGIVSKGRSDAKPPRVFTRISHYRPWINQILQAN
B21: chymase C22S/K93Q/G119D/F173S/K192R/A226R (enzyme)
chain: IIGGTESKPHSRPYMAYLEIVTSNGPSKFCGGFLIRRNFVLTAAHCAGRSITVTLGAHNITEEEDTWQKLEVIKQFRHPQYNTSTLHHDIMLLKLKEKASLTLAVDTLPFPSQFNFVPPGRMCRVAGWGRTGVLKPGSDTLQEVKLRLMDPQACSHSRDFDHNLQLCVGNPRKTKSAFRGDSGGPLLCAGVAQGIVSYGRSDAKPPRVFTRISHYRPWINQILQAN
B22: chymase C22S/F41G/L99H/G151T/F173L/Y215K/A226R (enzyme)
chain: IIGGTESKPHSRPYMAYLEIVTSNGPSKGCGGFLIRRNFVLTAAHCAGRSITVTLGAHNITEEEDTWQKLEVIKQFRHPKYNTSTHHHDIMLLKLKEKASLTLAVGTLPFPSQFNFVPPGRMCRVAGWGRTGVLKPTSDTLQEVKLRLMDPQACSHLRDFDHNLQLCVGNPRKTKSAFKGDSGGPLLCAGVAQGIVSKGRSDAKPPRVFTRISHYRPWINQILQAN

These binders were tested against Human Factor B (human) (UniProt P00751) (assay: cell-based or functional assay).
Human Factor B (human), sequence (P00751 26-764 limits assumed): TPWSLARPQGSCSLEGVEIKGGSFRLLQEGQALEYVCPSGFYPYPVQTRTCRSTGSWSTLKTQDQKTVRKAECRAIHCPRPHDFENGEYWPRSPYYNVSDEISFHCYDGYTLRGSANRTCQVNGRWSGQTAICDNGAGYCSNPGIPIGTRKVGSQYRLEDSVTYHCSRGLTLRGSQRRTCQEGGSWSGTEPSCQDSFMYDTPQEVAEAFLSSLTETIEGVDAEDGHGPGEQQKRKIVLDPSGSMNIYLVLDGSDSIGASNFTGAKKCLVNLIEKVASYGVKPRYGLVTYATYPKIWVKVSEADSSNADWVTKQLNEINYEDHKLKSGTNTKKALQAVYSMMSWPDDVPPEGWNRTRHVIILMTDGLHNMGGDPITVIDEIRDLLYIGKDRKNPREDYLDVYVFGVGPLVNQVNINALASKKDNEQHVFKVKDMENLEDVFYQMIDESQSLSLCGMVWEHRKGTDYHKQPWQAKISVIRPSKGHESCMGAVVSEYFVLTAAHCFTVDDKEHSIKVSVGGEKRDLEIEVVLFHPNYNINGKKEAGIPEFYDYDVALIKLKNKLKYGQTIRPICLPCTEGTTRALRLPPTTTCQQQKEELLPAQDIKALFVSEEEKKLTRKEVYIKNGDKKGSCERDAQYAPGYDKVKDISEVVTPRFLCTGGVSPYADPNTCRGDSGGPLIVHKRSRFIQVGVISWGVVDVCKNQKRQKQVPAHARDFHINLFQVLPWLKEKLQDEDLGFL

Q: Which fB Cleavage EC50 does the source give for B1 here?
A: 3.74 µM

Q: For B2, which fB Cleavage EC50 is on record?
A: 3.16 µM

Q: Which fB Cleavage EC50 does the source give for B3 here?
A: 4.8 µM

Q: For B4, which fB Cleavage EC50 is on record?
A: 7.51 µM

Q: How did the fB Cleavage EC50 turn out when B5 was run?
A: 7.89 µM

Q: With B6 as the binder, how does the fB Cleavage EC50 read?
A: 8.73 µM

Q: For B7, which fB Cleavage EC50 is on record?
A: 4.17 µM

Q: For B8, which fB Cleavage EC50 is on record?
A: 0.546 µM

Q: For B9, which fB Cleavage EC50 is on record?
A: 5.42 µM

Q: For B10, which fB Cleavage EC50 is on record?
A: 6.64 µM

Q: With B11 as the binder, how does the fB Cleavage EC50 read?
A: 7.13 µM

Q: B12 was tested. Which fB Cleavage EC50 did it give?
A: 5.33 µM

Q: For B13, which fB Cleavage EC50 is on record?
A: 3.48 µM

Q: How did the fB Cleavage EC50 turn out when B14 was run?
A: 6.64 µM

Q: B15 was tested. Which fB Cleavage EC50 did it give?
A: 3.45 µM

Q: B16 was tested. Which fB Cleavage EC50 did it give?
A: 9.01 µM

Q: How did the fB Cleavage EC50 turn out when B17 was run?
A: 1.26 µM

Q: For B18, which fB Cleavage EC50 is on record?
A: 3.28 µM

Q: For B19, which fB Cleavage EC50 is on record?
A: 5.99 µM

Q: For B20, which fB Cleavage EC50 is on record?
A: 10.2 µM

Q: B21 was tested. Which fB Cleavage EC50 did it give?
A: 7.77 µM

Q: With B22 as the binder, how does the fB Cleavage EC50 read?
A: 11.5 µM
